The nanobody polyreactivity screen of Harvey et al. (2022)

Assay: yeast display, Sf9 membrane polyspecificity reagent, FACS + sequencing; frameworks hold sequencing errors
In short: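 Nanobodies from a synthetic yeast display library (Saccharomyces cerevisiae BJ5465), induced 36–48 hours with galactose, were stained 1 hour at 4 °C with 10% biotinylated, detergent-solubilized Sf9 membrane reagent, enriched on streptavidin microbeads, then FACS-sorted. Anti-HA (expression) and streptavidin (reagent binding) fluorescence set low and high (top ~1%) gates. Polyreactivity labels come from the gate of origin. Genes were colony-PCR amplified, MiSeq 2 × 250 sequenced and filtered by CDR length.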

Sequence | polyreactivity (PSR sort gate)
QVQLVESGGGFVQAGGSLRLICAAYRSIFSLYAMGWYRQAPGKERELVAHISSDGSTNYADSVKGRFTISRDNAKNTVYLQMNSLKPEDTAVYYCAKKPSSARYFTIGFDYWGQGTQVTVSS | low polyreactivity
QVQFVESGGGLVQAGGSLRLSCAASGSIFALYAMGWYRQAPGKERELVAAISYRGGRTYYADSVKGRFTISRDNAKNTVYLQMNSLKPEDTAVYYCATDFPGKFDYWGQGTQVTVSS | low polyreactivity
QVQLVESGGGLVQAGGSLRLSCAASGSTFPFNAMGWYRQAPGKERELVAVITYSGGSTYYADSVKGRFTISRDNAKNTVYLHMNSLKPVVTAVYYCAADVYYWGSTYYYWGLGTQVTVSS | high polyreactivity
QVQLVESGGGLVQAGGSLRLSCAASGRIFQGYAMGWYRQAPGKERELLAAITVRCGTTYYADSVKGRFTISRDNAKNTVYLQMNSLKPEDTAVYYCNAAKLIHGYQSVYPGSNSRYYYWGQGTQVTVSS | low polyreactivity
QVQLVESGAGLVQAGGSLRLSCAASGSTFCRYVAMGWYRQAPGKERELVAAISVSDGDTYYADSVKGRFTISRDNAKNTVYLQMNSLKPEDTAVYYCAAESFYGYDYWGQGTQVTVSS | high polyreactivity
QVQLVESGGGLVQAGGSLRLSCAASGLTFYLYAMGWYRQAPGKERELVAAISRSGGSTYYADSVKGRFTISRDNAKNTVYLQMNSLKPEDTAVYYCAAVTYYPEIRKYYYWGQGTQVTVSS | high polyreactivity
QVQLVESGGGLVQAGGSLRLSCAASGSTFSRNAMGWSRQAPGKERELVAAISRRGGTTNYADSVKGRFTISRDNAKNTVYLQMNSLKPEDTAVYYCNAQPGDYWGQGTQVTVSS | high polyreactivity
QDQLVESGGGLVQAGGSLRLSCAASGRTISGYVMGWYIQAPGKERELVATINGSGASTYYADSVKGRFTISRDNAKNTVYLQMNSLKPEDTAVYYCAAKRYRPKYEYYYWGQGTQVTVSS | high polyreactivity
QVQRVESGGGLVQAGGSLRLSCAASGSLFYLYAMGWYRQAPGKERELVARITIRGGSTYYADSVKGRFTISRDNAKNTVYLQMNSLKPEDTAVYYCAARRPYGDYDYWGQGTQVTVSS | high polyreactivity
QVQIVESGGGLVQAGGSLRLSCAASGSIFYRYAMGWYRQAPGKERQLVAAISSGGTTSYADSVKGRFTISRDNAKNTVYLQMNSLKPEDTAVYYCAAFAYGYRYKTYDYWGQGTQVTVSS | high polyreactivity
QVQLVESGGGLVQAGGSLRLSCAASGFIFSKYAMGWYRQAPGKERELVASISTSGGSTYYADSVKGRFTISRDNAKNTVYLQMNSLKPEDTAVYYCAVASRSHGYKRAYYYWGQGTQVTVSS | high polyreactivity
QVQLVESVGGLVQEGGTLRLSCAASGSTFEVYTMGWYRQAPGKERELVAAITKNGGTTYYADSVKGRFTISRDNAKNTVYLQMNSLKPEDTAVYYCAVYYYSGYYYWDYYWGQGTQVTVSS | low polyreactivity
QVQLVESGGGLVQAGGSLRLSCAASGRTFSYYAMGWYRQAPGKERELVAAIRRSSGTTYYADSVKGRFTISSDNAKNTVYLQMNSLKPEDTAVYYCNARSRRASIKRDYWGQGTQVTLSS | high polyreactivity
QVQLVESGGGLVQAGGSLRLSCAASGSTFWTNAMAWYRQSPGKERELVATITYSTGTYADSVKGRFTISRDNAKNTVYLQMNSLKPEDTAVYYCAAEVVAQMNYWGQGTQVTVSS | low polyreactivity
QVQLVESGGGLVQAGGSLRLSCAASGLIFYDNMGWYGPAPGKERELVAAISSSGGSTSYADSVKGRFTISRDNAKNTVYLQMNSLKPEDTAVYYCAADSYPAYLGFVCFDYWGQGTQVTVSS | low polyreactivity
QVQLEESGGGLVQAGGRLRLSCAASGIISAHYAMGWYRQAPGKERELVAAISSSGGSTYYADSVKGRFTISRDNAKNTVYLQMNSLKPEDTAVYYCNAEFYWGYDYWGQGTQVTVSS | low polyreactivity
QVQLVESGGGLVQAGGSLRLSCAASGLTFVYYAMGWYRQAPGKERELVASITRGGSTNYADSVKGRFTISRDNAKNTVYLQMTSLKPEDTAVYYCAAGYGGWAWIHVSYGGDYWGQGTQVSVSS | low polyreactivity
QVQLVESGGGLVQAGGSLRLSCAASGFTFQDNAMGWYRHAPGKERELVASITGSGGSTYYADSVKGRFTISRDNAKNTVYLQMNSLKPEDTAVYYCAAETYTRSALVLYGSREMEYWGQGTQVTVSS | low polyreactivity
QVQLVESGGGLVQAGGSLRLSCAASGSIFGLYTMGWYRQAPGKERELVAAISSVGSTYYADSVKGRFTISRDNAKNTVYLQMNSLKPEDTAVYYCNVYSRTHYQTYTDDYWGQGTQVTVSS | high polyreactivity
QVQLVESGGGLVQAGGSLRLSCAPSGFIFRYYAMGWYRHAPGKERELVAAISRTSGRTYYADSVKGRFTISRDNAKNTVYLQMNSLKPEYTAVDYCAAVVRNPGTYEYWGQGTQVTVSS | high polyreactivity
QVLLVESGGGLVQAGGILRLSCAASGNILGYNAMGWSRQAPGKERELVAAISWIGGSTYYADSVKGRFTISRDNAKNTVYLQMNSLKQEDTAVYYCASRYRTYFTYEYWGQVTQVTVSS | low polyreactivity

Sequence | polyreactivity (PSR sort gate)
QDQLVESGGGVVQAGGSLRLSCAASGSTFEYNAMGWYRQAPGKERELVASSTNYADSVKGRFTISRDNAKNTVYLQMNSLKPEDTAVYYCGREQGVNRNHDYWGQGTQVTVSS | low polyreactivity
QVQLVESGGGLVQAGGSLRLSCAASGFIFGYYAMGWYRQAPGKERELVAAISWSGVSTYYADSVKARFTISRDNAKNTVSLQMNSLKREDTAVYYCAFGYVLTGVFQARFDYWGQGTQVTVSS | high polyreactivity
QVQLEESGGGLVQAGGSLRLSCAASGRTFTPNAMGSSRQAPGKERELVASIRRGTSTYYADSVKGRFTISRDNAKITVYLQMNSLKPEDTAVYYCAARPFVPRVGTYSYYWGQGTQVTVSS | high polyreactivity
QVQLVESGGGLVQAGGSLRLSCAASGSIFAYNAMGRYRQAPGKEREYVAAISQSGGRTYYADSVKGRFTISRDTSKNTVYLQMNSLKPEDTAVYYCATDGIRLTRHRDYDYWGQGTQVTVSS | low polyreactivity
QVQLVESGGGLVQAGGSLRLSCAASGRTFTIYAMGWYRQAPGKEREFVAGITTGGSSTYYADSVKGRFTISRDNAKNTVYLQMNILKPEDTAVYYCAAVSYAWYDYWGQGTHVTVSS | low polyreactivity
QVQLVESGGGIVQAGGSLRLSCAASGRSFDPYAMGWYRQAPGKERELVAAISRSGGSTYYADSVKGRFTISRDNAKNTVYLQMNSLKPEDTAFYYCAADDSRYYYEYDYWGQGTQVTVSS | high polyreactivity
QVQLVESGGGLVQAGGSLRLSCAASGLTFEYYAMGWYRQAPGKERELVAAITSTGSTNYADSVKGRFTISRDNAKNTVYLQMNSLKPEDTAVYFCNAEKPEGSTLYDYDYWGQGTQVTVSS | low polyreactivity
QVQLVESGGGLVQAGGSLRLSCAASGTIFYINAMGWYRQAPGKERELVAAIRSGGSTNYADSVKGRFTISRDNAKNTVYLQMNSLKPEDTAVYYCNARSRSYVPYYYWGQGTQVTVSS | high polyreactivity
QVQLVESGGGLVQAGGSLRLSCAASGSIFQSYDMGWYRQAPGKERELVAAIRSGDSTYYADSVKGRFTISRDNAKNTVYLQMNSLKPEDTAVYYCNKDEATFLSKDGYWGQGTQVTVSS | low polyreactivity
QFQLVESGGGLVQAGGSLRLSCAASGRILYPNTMGWYRQAPGKEREVVAAISGSGSRTYYADSVKGRFTISRDNAKNNVYLQMNSLKPEDTAVYYCADRGDGTVGVSSPGKRRHYYWGQGTQVTVSS | high polyreactivity
QVQLVESGGGLVQAGGSLRLICAASGSIFDYYDMGWYRQAPGKERELVAANNWSGGITYYADSVKGRFTISRDYAKNTVYLQMNSLKPEDTEVYFCAADWYQWVYSSSITSFDYWGQGTQVTVSS | low polyreactivity
QVQLVESGGGLVQAGGSLRLSCAASGRTFYLYAMGWYRQAPGKERELVAAITFNGGSTYYADSVKGRFTISRDNAKNTVYLQMNSLKPEDTAVYYCAARLSKRSGYYYWGQGTQVTVSS | high polyreactivity
QVQLVESGGGLVHAGGSLRLSCAPSGSTFFTNAMGWYRQAPGKERELVAAITINDGSTFYADSVKGRFTISRDNAKNTVYLQMNSLKQEDTAVYYCNADGVDLYDYWGQGTQVTVSS | low polyreactivity
QFQLVESGVGLVQAGASLRLSCAASVLTFVGNAMGWYRQAPGKERELVDAISKRGGRTYYADSVKGRFRISRDNAKNTVYLQMNSLKPEDTAVYYCAATIKAYPTPLLGDYWGQGTQVTVSS | high polyreactivity
QVQLVESGGGLVQAGGRLRLSCAASGFTFRAFTMGWYRQAPGKERELVAAITYSGGRTYYADSVKGRFTISRDNAKNTVYLQMNSLKPEDTAVYYCAKRGWALSEYYYWGQGTQVTVSS | high polyreactivity
QVQLVESGGGLVQAGGSLRLSCAASGRIFVPYVMGWYRQAPGKERELVASISDSDTSTYYADSVKGRFTISRDNAKNTVDLQMNSLKPEDTAVYYCNVDYWGQGTQVTVSS | low polyreactivity
QVQLVESGGGLVQAGGSLRLSCAASGRIFGRYAMGWYRQAPGKERELVARITFRGGNTYYADSVKGRFTISRDNAKNTVYLQMNSLKPEDTAVYYCNASKHNPYGGDYWGQGTQVTVSS | high polyreactivity
QVQLVESGGGLVQAGGSIRLSCAASGSTFCVNAMGWDRQAPGKERELVAVITFTGSRTYYADSVKGRFTISRDNAKNTVYLQMNSLKPEDTAVYYCAADRRRVLYKFDYWGQGTQVTVSS | low polyreactivity
QDQHVESGGGLVQAGGSLRLSCAAYGSTFLYYAMGWFRQAPGKERELVAAITSGGSTYYADSVKGRFTISRDNPKNTVFLQMNRLKPEDTAVYYCTVFGYGYWGQGTQVTVSS | high polyreactivity
QVQLVESGGGIVQAGVSLRLSCAASGISYSPNVMGWYRQAPGKERELVASISSGGSTYYADSVNGRFTISRDNATNSVYLQMNSLKPEDTAVYYCAAEVDGYWTYYYWGQGTQVTVSS | low polyreactivity
